Laboratory results: patent publication US11814439 (TG THERAPEUTICS, dated 2023)

Columns and labels:
Test in all cases: cell-based or functional assay
[1] = target: T1, FcγIIIA Receptor on the effector cells (CD16 / FcγRIII) (human, UniProt P08637 17-254)
[2] = target: T1, FcγIIIA Receptor on the effector cells …; remark: listed apart in the source
[3] = target: C1q Receptor in the complement system (rabbit serum as the source of complement) (rabbit)
[4] = target: T1, FcγIIIA Receptor on the effector cells …; remark: listed apart in the source

T1 sequence (P08637 17-254): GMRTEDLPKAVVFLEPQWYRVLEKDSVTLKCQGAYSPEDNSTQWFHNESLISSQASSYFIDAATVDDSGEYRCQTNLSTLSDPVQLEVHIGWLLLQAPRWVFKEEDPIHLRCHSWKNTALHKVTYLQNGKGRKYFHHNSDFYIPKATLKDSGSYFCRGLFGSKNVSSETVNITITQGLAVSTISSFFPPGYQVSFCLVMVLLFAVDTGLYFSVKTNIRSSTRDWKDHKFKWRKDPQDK

B1: TG-1101 (TG Therapeutics, Inc.) (antibody, human IgG1, kappa)
heavy: not shown
light: QIVLSQSPAILSASPGEKVTMTCRASSSVSYMHWYQQKPGSSPKPWIYATSNLASGVPARFSGSGSGTSYSFTISRVEAEDAATYYCQQWTFNPPTFGGGTRLEIKRTVAAPSVFIFPPSDEQLKSGTASVVCLLNNFYPREAKVQWKVDNALQSGNSQESVTEQDSKDSTYSLSSTLTLSKADYEKHKVYACEVTHQGLSSPVTKSFNRGEC
[1]
  ADCC EC50 (Raji target cells, KILR CD16a effector cells): 0.00242 ng/mL
[2]
  ADCC EC50, fold lower than OCREVUS: ~25 fold
[3]
  CDC EC50 (Jeko-1 cells, rabbit complement): 670 ng/mL
[4]
  EC50 of ADCC assay Using Primary NK Cells: 49000 ng/mL
